Data from IntAct's records for PubMed 33758649.

B1: Protein PALS1 (Homo sapiens), Q8N3R9 (parent)
chain: MTTSHMNGHVTEESDSEVKNVDLASPEEHQKHREMAVDCPGDLGTRMMPIRRSAQLERIRQQQEDMRRRREEEGKKQELDLNSSMRLKKLAQIPPKTGIDNPMFDTEEGIVLESPHYAVKILEIEDLFSSLKHIQHTLVDSQSQEDISLLLQLVQNKDFQNAFKIHNAITVHMNKASPPFPLISNAQDLAQEVQTVLKPVHHKEGQELTALLNTPHIQALLLAHDKVAEQEMQLEPITDERVYESIGQYGGETVKIVRIEKARDIPLGATVRNEMDSVIISRIVKGGAAEKSGLLHEGDEVLEINGIEIRGKDVNEVFDLLSDMHGTLTFVLIPSQQIKPPPAKETVIHVKAHFDYDPSDDPYVPCRELGLSFQKGDILHVISQEDPNWWQAYREGDEDNQPLAGLVPGKSFQQQREAMKQTIEEDKEPEKSGKLWCAKKNKKKRKKVLYNANKNDDYDNEEILTYEEMSLYHQPANRKRPIILIGPQNCGQNELRQRLMNKEKDRFASAVPHTTRSRRDQEVAGRDYHFVSRQAFEADIAAGKFIEHGEFEKNLYGTSIDSVRQVINSGKICLLSLRTQSLKTLRNSDLKPYIIFIAPPSQERLRALLAKEGKNPKPEELREIIEKTREMEQNNGHYFDTAIVNSDLDKAYQELLRLINKLDTEPQWVPSTWLR

Variants of: B1
Settings: with vemp_sars E

| Variant | effect of a mutation on the interaction |
| --- | --- |
| F318W | increasing interaction strength |
